From article PMC8968458

Target: NF-κB protein p65 (endogenous) (human (endogenous in PC-3)), Q04206
Assay: immuno-depletion
Conditions: remark: other sources report otherwise

NF-κB protein p65 (endogenous) (human (endogenous in PC-3)), Q04206, sequence (Q04206 whole entry): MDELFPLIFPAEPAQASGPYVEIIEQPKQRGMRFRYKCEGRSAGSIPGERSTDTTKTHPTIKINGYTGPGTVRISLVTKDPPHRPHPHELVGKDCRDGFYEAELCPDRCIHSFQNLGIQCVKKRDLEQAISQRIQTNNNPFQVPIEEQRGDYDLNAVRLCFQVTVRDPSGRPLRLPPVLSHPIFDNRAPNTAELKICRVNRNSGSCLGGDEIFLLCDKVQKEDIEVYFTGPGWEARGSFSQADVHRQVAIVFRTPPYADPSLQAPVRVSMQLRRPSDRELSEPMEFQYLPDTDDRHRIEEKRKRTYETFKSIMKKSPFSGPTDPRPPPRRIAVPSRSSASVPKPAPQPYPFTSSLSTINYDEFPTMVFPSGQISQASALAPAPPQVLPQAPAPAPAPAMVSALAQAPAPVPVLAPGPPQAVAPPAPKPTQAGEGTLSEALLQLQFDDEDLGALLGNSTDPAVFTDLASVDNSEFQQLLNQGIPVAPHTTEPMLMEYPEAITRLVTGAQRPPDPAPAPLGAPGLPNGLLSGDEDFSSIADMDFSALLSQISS

- percent of IκBα bound to p65: 63%
B1: IκBα (endogenous), P25963 1-317 (natural protein)
chain: MFQAAERPQEWAMEGPRDGLKKERLLDDRHDSGLDSMKDEEYEQMVKELQEIRLEPQEVPRGSEPWKQQLTEDGDSFLHLAIIHEEKALTMEVIRQVKGDLAFLNFQNNLQQTPLHLAVITNQPEIAEALLGAGCDPELRDFRGNTPLHLACEQGCLASVGVLTQSCTTPHLHSILKATNYNGHTCLHLASIHGYLGIVELLVSLGADVNAQEPCNGRTALHLAVDLQNPDLVSLLLKCGADVNRVTYQGYSPYQLTWGRPSTRIQQQLGQLTLENLQMLPESEDEESYDTESEFTEFTEDELPYDDCVFGGQRLTL
